To fix the notation:
T1: APL17-Biotin
T1 peptide: KFRRQRPRLSHKGPMPF-biotin

T2: Biotin-APL17
T2 peptide: Biotin-KFRRQRPRLSHKGPMPF

T3: pyr-apelin-13-biotin (pE-RPRLSHKGPMPF-biotin) (N-terminal pyroglutamate (pE); C-terminal biotin)
T3 construct: also called pyrAPL13-Biotin
T3 peptide: ERPRLSHKGPMPF

B1: humanized anti-apelin mAb A11 (antibody, V domains shown)
VH: QSLEESGGGLVQPGGSLRLSCAVSGIDLYSNRMSWVRQAPGKGLEWVSSIGSSPWYASWAQGRFTISRDNSNTLYLQMNSLTAEDTAVYYCAKGGYRPGASVWGQGTLVTVSS
VL: DIQLTQSPSSLSASVGDRVTITCQSSQSIYDNNDLAWYQQKPGKTPKRLIYLASSLDSGVPSRFSGSGSGTDFTLTISSLQPEDVATYYCAGGYSGDIYTFGGGTKVEIK
notes: humanized from C8; tested as HEK293 supernatant
B2: humanized anti-apelin mAb A33 (antibody, V domains shown)
VH: B1 VH with S48G, L74V, V88T, Y90F
VL: AQVLTQSPSSLSASVGDRVTIACQSSQSVYDNNDLAWYQQKAGQTPKRLIYLASSLDSGVPSRFSGSGSGTEFTLTISSLQCEDVATYYCAGGYSGDIYTFGGGTEVVVE
notes: as for B1
B3: humanized anti-apelin mAb A41 (antibody, V domains shown)
VH: B1 VH with A22T, S48G, L74V, Q77K, L81P, V88T, Y90F
VL: B1 VL
notes: as for B1
B4: humanized anti-apelin mAb A43 (antibody, V domains shown)
VH: B1 VH with A22T, S48G, L74V, Q77K, L81P, V88T, Y90F
VL: B2 VL
notes: as for B1
B5: humanized anti-apelin mAb A21 (antibody, V domains shown)
VH: B1 VH with L74V, V88T, Y90F
VL: B1 VL
notes: as for B1
B6: anti-apelin mAb C27 (antibody, V domains shown)
VH: QSVEESGGRLVTPGGSLTLTCTVSGIDLINAWMNWVRQAPGKGLEWIGTTTDDDTIYYANWAKGRFTISRTSTTVDLKVTSLTSEDTATYFCSKGRIWGPGTLVTVSL
VL: QVLTQTPASVSAAVGGTVTINCQASQSVYDGNWLCWYQQKPGQPPKRLIYKASTLESGVPSRFKGSGSGTQFTLTISDLECDDAATYYCQGGFTSNIYPFAGGTEVVVK
notes: recombinant rabbit IgG made in HEK293 cells
B7: anti-apelin mAb C17 (antibody, V domains shown)
VH: QSVEESGGRLVKPDETLTLTCAVSGIDLSSNAMNWVRQAPGEGLEWIGSMYTDGTTYYANWAKGRFTISRASSTTVDLKMTSLTAADTATYFCARGDIWGPGTLVTVSS
VL: QVLTQTASPVSAAVGGTVTISCQSSQSVYNNNWLAWFQQKPGQPPKRLIYGTSELASGVPSRFKGSGSGTQFTLTISGVQCDDAATYYCLGTYSSNIHVFGGGTEVVVK
notes: as for B6
B8: anti-apelin mAb C26 (antibody, V domains shown)
VH: QEQLEESGGGLVQPEGSLTLTCTASGFTLSNYWMSWVRQAPGKGLVWIGCIDIGSDDTYYASWAKGRFTISRTSSTTVTLQVTSLTAADTATYFCARSGGLWGPGTLVTVSS
VL: QVLTQTPSSTSAAVGGTVTINCQASQSVYNNNDLAWYQQKPGQPPKRLIYEASKLASGVPSRFSGSGSGTQFTLTISDLECDDAATYYCAGGWSGNFYVFGGGTEVVVK
notes: as for B6
B9: anti-apelin mAb C5 (antibody, V domains shown)
VH: QSVEESGGRLVTPGTPLTLTCTVSGFSLSGAWMNWVRQAPGKGLEWIGVVSSDDNIYYADWAKGRFTISKTSTTVDLKLTSPTTEDTATYFCARNLGTIWGPGTLVTVSS
VL: QVLTQTESPVSAAVGGTVTINCQSSQSVWSNYLSWFQQKPGQPPKVLIYGTSKLPSGVPSRFSGSGSGTEFTLTINDLECDDAATYYCAGGYSGHIYSFGGGTEVVVK
notes: as for B6
B10: anti-apelin mAb C9 (antibody, V domains shown)
VH: QEQLEESGGDLVKPEGSLTLTCTASGFSFSSSYWICWVRQAPGKGLEWIACIYQSGDGRTWYASWAEGRFTISKTSPTTVTLQMASLTAADTATYFCARCPHNTYSHFDLWGPSTLVTVSS
VL: DIVMTQTPASVEAAVGGTVTIKCQASQSINSWLSWYQQKPGQPPKPLIYGASNLASGVPSRFKGSGSGTQFTLTISDLECADAATYSCLGYYYSSYNSVGFWAFGGGTEVVVK
notes: as for B6
B11: C13 (antibody, V domains shown)
VH: QSLEESGGRLAKPGETLTLTCTVSGIDLNSHAVDWVRQAPGKGLEWIGVIGPGGNTYYASWAKGRFTISKTSSTTVDLKMTSLTAEDTATFFCATYPIYSGDNIWGPGTLVTVSS
VL: DPVLTQTPPSVSAAVGGTVTINCQSSESVDNNNQLSWYQQKVGQPPKRLMYYASTLDSGVPSRFKGGGSGTHFTLTITDLECDDAATYYCQGGTATNIYPFGGGTEVVVK
notes: recombinant rabbit mAb; also called anti-apelin mAb C13

Changes are numbered by the printed parent chain. No end group written: not given here. *: point of attachment. Biotin = O=C1N[C@H]2[C@H](CS[C@H]2CCCCC(=O)*)N1

For the first experiment, the target named is T4, biotin-apelin-13 (biotin-…) (N-terminal biotin).
T4 construct: also called Biotin-APL13
Kind of experiment: SPR (Biacore) with biotin-apelin-13, humanized IgG1 mAb in HEK293 supernatant. The text has this: The rabbit anti-apelin mAb C8 was humanized to reduce the potential of immunogenicity when used in human patients. The sequences of the variable regions of the heavy and light chains (VH and VL) were compared with the human antibody sequences in the Protein Data Bank (PDB) database and a homology model was built by applying SWISS-modeling. The CDRs in both the heavy and light chains of the rabbit mAb were grafted into human frameworks that have the highest possibility of maintaining the proper structure likely required for antigen binding. Backmutations from human residue to rabbit residue were designed when necessary. The sequences of the humanized VH and VL regions are shown in Table 11 and Table 12, respectively. The humanized VH and VL regions were fused to human IgG1 heavy chain and kappa light chain constant regions, respectively, to generate humanized mAbs. Constructs corresponding to the mAb sequences were used for transient transfection in HEK 293 cells and the supernatants were analyzed for the affinity of each humanized mAb for apelin.
(Surface plasmon resonance follows binding to a sensor surface in real time, without labels.)
With B1, the Kd came to 0.126 pM.

Molecule B2 displayed a Kd of 0.0143 pM.

In the case of B3, the Kd worked out at 0.067 pM.

Take B4: the Kd was found to be 3.26 pM.

On to B5, for which the dissociation constant Kd came out at 0.00165 pM.

Another experiment addresses T4, biotin-apelin-13 (biotin-…). Description: SPR (Biacore), biotin-apelin-13 on streptavidin CM5 chip, mAb at 12.5-100 nM. The procedure: Anti-apelin mAbs at four different concentrations (12.5 nM, 25 nM, 50 nM and 100 nM) were captured on the chip surface. The on- and off-rate for antibody-antigen binding were measured, curve fitted and calculated.
Molecule B6 displayed a Kd of 0.589 nM.

Consider B7, for which the Kd is 1.06 nM.

As for B8, binding was put at a Kd of 0.119 nM.

Molecule B9 showed a Kd of 51.3 nM.

B10 had a Kd of 14.8 nM.

The next experiment deals with T1, APL17-Biotin. Description: ELISA, peptide on neutravidin plate, mAb 200 ng/ml, A405. As for the experimental part: (§1) FIGS. 1A-1C show binding of anti-apelin mAbs to various biotinylated apelin peptides measured by ELISA. Biotinylated apelin peptides were immobilized on ELISA plates coated with neutravidin and purified recombinant rabbit anti-apelin mAbs were added for binding to the peptides on the plates. The binding was detected by adding a goat anti-rabbit IgG Fc-conjugated to alkaline phosphatase and PNPP substrate, and measured as the absorbance at 405 nm.
(§2) For the binding assay, neutravidin in carbonate coating buffer was coated on high binding ELISA plates at 1 μg/ml overnight. Peptides were added at 4 μg/ml after the plates were blocked with 1% BSA in TBS. After incubation of the plates at room temperature for 60 minutes, the plates were washed and then purified recombinant rabbit antibodies were added at 200 ng/ml. Following rabbit antibody binding to the peptides on the plates at room temperature for 90 minutes, goat anti-rabbit IgG Fc-conjugated to alkaline phosphatase was added, and antibody-antigen binding was detected by adding PNPP substrate and reading absorbance of ELISA plates at 405 nm. Each mAb was assayed in duplicate.
B10: the binding result is “binds”.

The target in a further experiment is T2, Biotin-APL17. The experiment is described as above. The procedure:
as §1, §2
As for B6, the binding result was “binds”.

For the molecule B11, the binding result is recorded as “binds”.

For the molecule B10, the binding result is reported as “binds”.

Another experiment has as its target T3, pyr-apelin-13-biotin …. Described as above. As for the experimental part: as §1, §2
For the molecule B6, the binding result is recorded as “no binding (tested: 200 ng/ml)”.

As to B7, the binding result is reported as “no binding (tested: 200 ng/ml)”.

With B11, the binding result is “binds”.

With B8, the binding result is “no binding (tested: 200 ng/ml)”.

As to B9, the binding result was “no binding (tested: 200 ng/ml)”.

As usually defined, the Kd is the free concentration of one partner at which half of the binding sites on the other are occupied at equilibrium, for simple one-to-one binding. A higher Kd goes with weaker binding.

The values are drawn from patent US20200362021A1 (PHANES THERAPEUTICS, published 2020).
